# Test results: article doi:10.1101/748145 (bioRxiv, 2019)
# Molecular target: the molecule itself
# Assay: cryo-EM structure
protein,measurement,value
"LetB periplasmic portion (residues 43-877) (domain or fragment, E. coli, UniProt P76272 43-877, looked up) QDRGNTVTIDFMSADGIVPGRTPVRYQGVEVGTVQDISLSDDLRKIEVKVSIKSDMKDALREETQFWLVTPKASLAGVSGLDALVGGNYIGMMPGKGKEQDHFVALDTQPKYRLDNGDLMIHLQAPDLGSLNSGSLVYFRKIPVGKVYDYAINPNKQGVVIDVLIERRFTDLVKKGSRFWNVSGVDANVSISGAKVKLESLAALVNGAIAFDSPEESKPAEAEDTFGLYEDLAHSQRGVIIKLELPSGAGLTADSTPLMYQGLEVGQLTKLDLNPGGKVTGEMTVDPSVVTLLRENTRIELRNPKLSLSDANLSALLTGKTFELVPGDGEPRKEFVVVPGEKALLHEPDVLTLTLTAPESYGIDAGQPLILHGVQVGQVIDRKLTSKGVTFTVAIEPQHRELVKGDSKFVVNSRVDVKVGLDGVEFLGASASEWINGGIRILPGDKGEMKASYPLYANLEKALENSLSDLPTTTVSLSAETLPDVQAGSVVLYRKFEVGEVITVRPRANAFDIDLHIKPEYRNLLTSNSVFWAEGGAKVQLNGSGLTVQASPLSRALKGAISFDNLSGASASQRKGDKRILYASETAARAVGGQITLHAFDAGKLAVGMPIRYLGIDIGQIQTLDLITARNEVQAKAVLYPEYVQTFARGGTRFSVVTPQISAAGVEHLDTILQPYINVEPGRGNPRRDFELQEATITDSRYLDGLSIIVEAPEAGSLGIGTPVLFRGLEVGTVTGMTLGTLSDRVMIAMRISKRYQHLVRNNSVFWLASGYSLDFGLTGGVVKTGTFNQFIRGGIAFATPPGTPLAPKAQEGKHFLLQESEPKEWREWGTALPK",stoichiometry N,6
